# PMC11127164, “Brefeldin A and M-COPA block the export of RTKs from the endoplasmic reticulum via simultaneous inactivation of ARF1, ARF4, and ARF5” (The Journal of Biological Chemistry, 2024)
# T1: glutathione S-transferase-fused Golgi-localized γ-adaptin ear-containing, ARF-binding protein 3 (1–316) (UniProt Q9NZ52 1-316)
# T1 construct: also called GST-GGA3; GST-GGA3(1–316); source: bought: Cytoskeleton, coated on Sepharose beads
# T1 sequence (looked up): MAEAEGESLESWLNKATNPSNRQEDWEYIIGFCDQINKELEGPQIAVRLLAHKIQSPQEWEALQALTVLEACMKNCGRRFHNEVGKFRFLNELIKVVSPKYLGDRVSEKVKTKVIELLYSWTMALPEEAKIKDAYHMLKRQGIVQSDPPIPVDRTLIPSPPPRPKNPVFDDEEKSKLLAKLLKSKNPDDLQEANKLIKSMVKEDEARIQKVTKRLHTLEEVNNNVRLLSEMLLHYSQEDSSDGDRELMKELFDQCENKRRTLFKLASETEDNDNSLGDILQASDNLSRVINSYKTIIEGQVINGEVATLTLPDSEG
# Columns and labels:
# [1] = molecular target: T2, Golgi-specific BFA-resistance guanine nucleotide exchange factor 1 (human (endogenous in GIST-T1), UniProt Q92538 1-1860); assay: co-IP; endogenous GBF1 immunoprecipitated from GIST-T1 lysate (NP-40 lysis buffer, 50 mM HEPES pH 7.4) with anti-GBF1 on Dynabeads Protein G, 4 °C, 5 h, immunoblot for ARFs; cells untreated or treated with 1 μM M-COPA for 4 h; co-precipitated ARF normalised to GBF1; conditions: partners not purified
# T2 construct: Golgi-specific BFA-resistance guanine nucleotide exchange factor 1 (GBF1), human, endogenous in GIST-T1 cells; Immunoprecipitated with an anti-GBF1 antibody on Dynabeads Protein G; also called GBF1; source: endogenous, GIST-T1 lysate
# [2] = molecular target: T1, glutathione S-transferase-fused …; assay: pull-down; GST-GGA3(1–316)-coated Sepharose beads incubated with lysates of GIST-T1 or PC-9 cells at 4 °C for 1 h, washed once, immunoblot for ARFs; cells untreated or treated with 1 μM M-COPA or 1 μM BFA for 4 h (GIST-T1) or 200 nM M-COPA for 8 h (PC-9); conditions: one partner purified
# T2 sequence (Q92538 whole entry): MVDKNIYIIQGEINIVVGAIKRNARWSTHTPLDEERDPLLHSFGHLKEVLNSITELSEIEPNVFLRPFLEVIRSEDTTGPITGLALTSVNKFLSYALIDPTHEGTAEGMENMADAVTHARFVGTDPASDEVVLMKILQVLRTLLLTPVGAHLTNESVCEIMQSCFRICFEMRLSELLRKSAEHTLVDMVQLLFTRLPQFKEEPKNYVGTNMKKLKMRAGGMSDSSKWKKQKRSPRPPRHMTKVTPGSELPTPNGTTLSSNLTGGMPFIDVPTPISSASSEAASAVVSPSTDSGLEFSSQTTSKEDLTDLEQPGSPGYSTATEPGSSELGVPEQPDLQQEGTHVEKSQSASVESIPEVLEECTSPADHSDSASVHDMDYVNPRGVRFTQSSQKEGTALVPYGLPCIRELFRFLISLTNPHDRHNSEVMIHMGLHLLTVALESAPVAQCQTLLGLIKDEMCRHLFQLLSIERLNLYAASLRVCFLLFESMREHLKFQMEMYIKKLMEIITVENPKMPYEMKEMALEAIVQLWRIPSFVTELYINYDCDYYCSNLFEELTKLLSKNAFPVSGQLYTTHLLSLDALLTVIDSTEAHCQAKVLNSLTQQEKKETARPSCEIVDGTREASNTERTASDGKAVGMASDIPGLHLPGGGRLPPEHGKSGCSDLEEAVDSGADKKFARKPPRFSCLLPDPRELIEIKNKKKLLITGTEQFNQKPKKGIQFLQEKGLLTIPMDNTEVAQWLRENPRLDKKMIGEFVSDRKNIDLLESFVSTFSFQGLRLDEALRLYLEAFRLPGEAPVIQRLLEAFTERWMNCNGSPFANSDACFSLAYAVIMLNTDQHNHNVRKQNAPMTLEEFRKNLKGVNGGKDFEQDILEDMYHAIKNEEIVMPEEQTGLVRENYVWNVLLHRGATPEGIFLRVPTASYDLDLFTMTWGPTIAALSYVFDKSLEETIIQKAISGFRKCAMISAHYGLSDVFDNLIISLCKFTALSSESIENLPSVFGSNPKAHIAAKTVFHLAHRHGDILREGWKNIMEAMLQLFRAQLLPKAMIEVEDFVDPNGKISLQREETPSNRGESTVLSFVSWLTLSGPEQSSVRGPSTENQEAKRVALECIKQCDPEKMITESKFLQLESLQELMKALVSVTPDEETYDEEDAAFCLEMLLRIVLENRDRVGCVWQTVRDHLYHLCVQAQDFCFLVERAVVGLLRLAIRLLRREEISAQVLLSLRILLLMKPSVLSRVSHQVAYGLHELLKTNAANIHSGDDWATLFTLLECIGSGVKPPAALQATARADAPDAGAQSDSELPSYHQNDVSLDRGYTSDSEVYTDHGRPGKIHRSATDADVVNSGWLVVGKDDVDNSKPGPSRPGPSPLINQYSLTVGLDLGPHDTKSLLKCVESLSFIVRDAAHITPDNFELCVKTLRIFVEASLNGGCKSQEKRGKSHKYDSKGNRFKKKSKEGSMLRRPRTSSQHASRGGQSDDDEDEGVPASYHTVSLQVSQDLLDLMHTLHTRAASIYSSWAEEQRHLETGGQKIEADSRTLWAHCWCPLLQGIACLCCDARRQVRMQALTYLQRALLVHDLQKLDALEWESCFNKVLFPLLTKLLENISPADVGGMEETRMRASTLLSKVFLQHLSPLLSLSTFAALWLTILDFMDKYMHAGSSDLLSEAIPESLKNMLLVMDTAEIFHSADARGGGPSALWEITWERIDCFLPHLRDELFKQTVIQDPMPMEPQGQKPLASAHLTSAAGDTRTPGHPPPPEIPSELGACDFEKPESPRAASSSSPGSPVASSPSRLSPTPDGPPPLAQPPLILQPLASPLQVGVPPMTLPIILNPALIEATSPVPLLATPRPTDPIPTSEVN
"fold increase of ARF co-immunoprecipitated with GBF1 after M-COPA treatment, relative to the untreated control [1]","level of GGA3-bound ARF after M-COPA treatment of the cells, relative to the untreated control [2]",Binder
8.66 fold,< 18%,"ADP-ribosylation factor 5 (natural protein, human (endogenous in GIST-T1 and PC-9), UniProt P84085 1-180, looked up, ADP-ribosylation factor 5 (ARF5), human, endogenous in GIST-T1 and PC-9 cells; also called ARF5; source: endogenous, GIST-T1 and PC-9 lysate) MGLTVSALFSRIFGKKQMRILMVGLDAAGKTTILYKLKLGEIVTTIPTIGFNVETVEYKNICFTVWDVGGQDKIRPLWRHYFQNTQGLIFVVDSNDRERVQESADELQKMLQEDELRDAVLLVFANKQDMPNAMPVSELTDKLGLQHLRSRTWYVQATCATQGTGLYDGLDWLSHELSKR"
6.89 fold,< 18%,"ADP-ribosylation factor 1 (natural protein, ADP-ribosylation factor 1 (ARF1), human, endogenous in GIST-T1 and PC-9 cells; also called ARF1; source: endogenous, GIST-T1 and PC-9 lysate) not shown"
14.1 fold,< 18%,"ADP-ribosylation factor 4 (natural protein, human (endogenous in GIST-T1 and PC-9), UniProt P18085 1-180, looked up, ADP-ribosylation factor 4 (ARF4), human, endogenous in GIST-T1 and PC-9 cells; also called ARF4; source: endogenous, GIST-T1 and PC-9 lysate) MGLTISSLFSRLFGKKQMRILMVGLDAAGKTTILYKLKLGEIVTTIPTIGFNVETVEYKNICFTVWDVGGQDRIRPLWKHYFQNTQGLIFVVDSNDRERIQEVADELQKMLLVDELRDAVLLLFANKQDLPNAMAISEMTDKLGLQSLRNRTWYVQATCATQGTGLYEGLDWLSNELSKR"
